Measured values published in PMC8204860, “Structural basis of [sequence]‐mediated Rab1 activation” (The EMBO Journal, 2021).

Biological target: T1, Trs31 (Saccharomyces cerevisiae, UniProt Q03337 1-283)
T1 construct: Trs31, TRAPP core subunit, S. cerevisiae; also called Trs31 subunit
T1 sequence: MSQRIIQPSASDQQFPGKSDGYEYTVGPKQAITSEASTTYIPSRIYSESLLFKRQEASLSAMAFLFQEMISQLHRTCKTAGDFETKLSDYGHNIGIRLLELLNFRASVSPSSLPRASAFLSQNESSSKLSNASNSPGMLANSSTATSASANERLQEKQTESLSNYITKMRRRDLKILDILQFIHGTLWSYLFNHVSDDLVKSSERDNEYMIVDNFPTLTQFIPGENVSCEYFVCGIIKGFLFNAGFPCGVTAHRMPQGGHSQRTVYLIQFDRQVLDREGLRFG
Assay: cryo-EM structure; TRAPPIII (after anion exchange) mixed 1:3 with Ypt1-7xHis, overnight at 4°C with calf intestinal alkaline phosphatase, complex isolated by SEC in 10 mM Tris pH 7.5, 350 mM NaCl, 1 mM DTT; 3.7 Å reconstruction
Conditions: both partners purified

B1: Rab1/Ypt1 (Ypt1-7xHis) (natural protein)
chain: not shown
notes: Rab1/Ypt1, budding yeast GTPase; Made nucleotide-free in the complex by alkaline phosphatase. pGEX-6P backbone; gift from the T. Bretscher laboratory; also called GST-Ypt1-7xHis (before cleavage); source: E. coli Rosetta2, purified (glutathione resin, eluted by PreScission cleavage of GST); not shown: GST, N-terminal, cleaved
- binding result: binds
